Results published in US5180678A, “Uses of substantially pure interleukin-9 receptor” (Ludwig Institute for Cancer Research, priority 1992, dated 1993).

How the values were obtained:
IL-9R [1] = target: T1, IL-9R (Mus musculus, UniProt Q01114); experiment: Competitive binding of radiolabelled rIL-9 to TS1 cells (specificity of IL-9 binding); set-up: a number of different cell types were tested for the presence of the IL-9R molecule; endogenous in cells; settings: labelled rIL-9 6.1×10^-10 M, 10^6 TS1 cells, 3 h 4° C., no competitor 4083 ± 16
T1 sequence (Q01114 38-468): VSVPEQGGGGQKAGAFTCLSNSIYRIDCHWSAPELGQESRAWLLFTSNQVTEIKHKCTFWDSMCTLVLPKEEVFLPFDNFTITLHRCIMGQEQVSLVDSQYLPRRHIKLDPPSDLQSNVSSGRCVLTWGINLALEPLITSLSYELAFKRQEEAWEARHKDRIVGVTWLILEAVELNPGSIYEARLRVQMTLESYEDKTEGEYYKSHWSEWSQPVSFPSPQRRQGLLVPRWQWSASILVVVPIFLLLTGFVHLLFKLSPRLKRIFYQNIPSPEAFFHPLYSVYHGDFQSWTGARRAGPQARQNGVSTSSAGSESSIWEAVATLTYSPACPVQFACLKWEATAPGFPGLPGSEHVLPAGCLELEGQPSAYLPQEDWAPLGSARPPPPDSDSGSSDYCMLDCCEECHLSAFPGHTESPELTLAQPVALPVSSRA
Description: In order to test whether the radioactive IL-9 would bind to TS1 cells which are mouse cells, which are IL-9 dependent, a competitive assay was carried out. Specifically, rIL-9 was incubated with TS1 cells in 140 ul of DMEM containing BSA (10 mg/ml) and Na3 N (10 mM). In order to determine the level of binding, a 100 fold excess of "cold", i.e., non-radiolabelledIL-9, was also mixed with the material. The rIL-9 was admixed at 6.1×10^-10 M, for three hours at 4° C., with 10^6 TS1 cells. Bound material was separated from free ligand via centrifugation over a layer of dibutyl and dioctyl phthalate (15:I). In addition, the experiments were repeated using various interleukins, interferon-γ ("INF-γ"), tumor necrosis factor ("TNF"), and granulocyte, macrophage colony stimulating factor ("GM-CSF"). All experiments were carried out in triplicate.

IL-9R [2] = target: T1, IL-9R; experiment: Saturation binding of radiolabelled rIL-9 to TS-1 cells, Scatchard transformation; set-up: endogenous in cells; host or cells: TS1 cells (mouse, IL-9 dependent)
Description: Experiments were performed to study the saturation binding of rIL-9. In these studies, as depicted in FIGS. 4a and 4b, increasing concentrations of radiolabelled rIL-9 were incubated with TS-1 cells (5×10^6 cells, 4° C. for three hours). This binding assay, as with those described supra. used 140 ul of DMEM containing BSA and Na3 N, also as described supra. Binding plateaued at 1 nM concentration, with half maximal saturation being reached at approximately 100 pM (FIG. 4a).

[3] = radiolabelled rIL-9, 5×10^6 TS-1 cells, 4° C., three hours (FIG. 4a)

IL-1α: interleukin tested as competitor of IL-9 binding
Bound Radioactivity (IL-9R [1]; competitor 8.7 × 10^-8 M): 4232 ± 177 cpm

IL-4: interleukin tested as competitor of IL-9 binding
Bound Radioactivity (IL-9R [1]; competitor 8.0 × 10^-8 M): 4154 ± 156 cpm

IL-5: interleukin tested as competitor of IL-9 binding
Bound Radioactivity (IL-9R [1]; competitor 2.7 × 10^-8 M): 4642 ± 77 cpm

IL-6: interleukin tested as competitor of IL-9 binding
Bound Radioactivity (IL-9R [1]; competitor 6.7 × 10^-8 M): 4751 ± 61 cpm

B1: rIL-9: recombinant mouse IL-9 from baculovirus infected Sf9 cells, 22-25 kilodaltons; used unlabelled and 125I-labelled (protein, UniProt P15247 19-144, looked up)
Interleukin-9: QRCSTTWGIRDTNYLIENLKDDPPSKCSCSGNVTSCLCLSVPTDDCTTPCYREGLLQLTNATQKSRLLPVFHRVKRIVEVLKNITCPSFSCEKPCNQTMAGNTLSFLKSLLGTFQKTEMQRQKSRP
modifications: 125I-labelled in some uses
notes: recombinant mouse IL-9 from baculovirus infected Sf9 cells, 22-25 kilodaltons; used unlabelled and 125I-labelled
density of IL-9 receptor (IL-9R [2]; Scatchard transformation, 3 runs, TS-1 cells (FIG. 4b)): 3111±565 /cell
Kd (IL-9R [2]; Scatchard transformation, 3 runs, TS-1 cells, single class of receptor (FIG. 4b)): 0.103 ± 0.013 nM
concentration at which binding plateaued (IL-9R [2]; [3]): 1 nM
half maximal saturation (IL-9R [2]; [3]): approximately 100 pM
Bound Radioactivity (IL-9R [1]; competitor 1.2 × 10^-9 M): 733 ± 21 cpm
Bound Radioactivity (IL-9R [1]; competitor 6.1 × 10^-8 M): 80 ± 8 cpm

B2: IFN-γ: interferon-γ tested as competitor of IL-9 binding (protein, UniProt P01579 24-161, looked up)
Interferon gamma: QDPYVKEAENLKKYFNAGHSDVADNGTLFLGILKNWKEESDRKIMQSQIVSFYFKLFKNFKDDQSIQKSVETIKEDMNVKFFNSNKKKRDDFEKLTNYSVTDLNVQRKAIHELIQVMAELSPAAKTGKRKRSQMLFRG
Bound Radioactivity (IL-9R [1]; competitor 2.4 × 10^-8 M): 4944 ± 8 cpm

B3: GM-CSF: granulocyte, macrophage colony stimulating factor tested as competitor of IL-9 binding (protein, UniProt P01587 18-141, looked up)
Granulocyte-macrophage …: APTRSPITVTRPWKHVEAIKEALNLLDDMPVTLNEEVEVVSNEFSFKKLTCVQTRLKIFEQGLRGNFTKLKGALNMTASYYQTYCPPTPETDCETQVTTYADFIDSLKTFLTDIPFECKKPGQK
Bound Radioactivity (IL-9R [1]; competitor 6.4 × 10^-8 M): 4682 ± 63 cpm
